Test results as given in patent US20240132573A1.

Assays:
Experiment in all cases: cell-based or functional assay
Plasma kallikrein = Plasma kallikrein (UniProt P03952)
Activated protein C = Activated protein C (UniProt P04070)
Thrombin = Thrombin (UniProt P00734)
Plasmin = Plasmin (UniProt P00747)
Human βFXIIa (Human) = biological target: T1, Human βFXIIa (Human) (UniProt P00748)
T1 sequence (looked up): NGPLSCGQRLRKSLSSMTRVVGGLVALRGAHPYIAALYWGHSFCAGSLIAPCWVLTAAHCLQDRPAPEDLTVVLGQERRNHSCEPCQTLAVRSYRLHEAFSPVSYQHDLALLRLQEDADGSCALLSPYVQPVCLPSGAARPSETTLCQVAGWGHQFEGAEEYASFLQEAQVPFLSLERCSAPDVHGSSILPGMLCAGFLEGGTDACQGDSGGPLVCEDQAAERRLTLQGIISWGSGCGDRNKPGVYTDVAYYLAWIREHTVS

Human αFXIIa (Human) = Human αFXIIa (Human) (UniProt P00748)

Chain of Plasmin (P00747 97-810 limits assumed): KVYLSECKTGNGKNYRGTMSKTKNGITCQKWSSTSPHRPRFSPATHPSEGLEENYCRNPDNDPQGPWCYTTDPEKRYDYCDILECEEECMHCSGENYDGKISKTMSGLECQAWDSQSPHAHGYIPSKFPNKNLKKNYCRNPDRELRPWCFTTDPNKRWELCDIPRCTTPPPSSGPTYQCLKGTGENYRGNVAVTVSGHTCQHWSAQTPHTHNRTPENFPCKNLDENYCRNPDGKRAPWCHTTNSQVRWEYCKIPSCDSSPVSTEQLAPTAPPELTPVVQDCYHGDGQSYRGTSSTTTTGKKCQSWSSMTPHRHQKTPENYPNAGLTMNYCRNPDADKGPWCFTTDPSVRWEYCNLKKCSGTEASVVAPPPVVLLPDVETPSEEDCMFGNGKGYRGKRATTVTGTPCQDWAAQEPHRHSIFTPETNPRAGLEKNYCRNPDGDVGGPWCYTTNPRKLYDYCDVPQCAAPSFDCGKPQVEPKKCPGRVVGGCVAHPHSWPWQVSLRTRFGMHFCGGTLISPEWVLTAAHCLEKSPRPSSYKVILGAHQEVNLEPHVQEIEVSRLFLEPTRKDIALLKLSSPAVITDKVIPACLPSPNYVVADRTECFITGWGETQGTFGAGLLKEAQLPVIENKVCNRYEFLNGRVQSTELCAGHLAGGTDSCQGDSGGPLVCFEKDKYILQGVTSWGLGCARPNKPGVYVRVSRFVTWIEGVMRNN
Chain of Activated protein C (P04070 43-461): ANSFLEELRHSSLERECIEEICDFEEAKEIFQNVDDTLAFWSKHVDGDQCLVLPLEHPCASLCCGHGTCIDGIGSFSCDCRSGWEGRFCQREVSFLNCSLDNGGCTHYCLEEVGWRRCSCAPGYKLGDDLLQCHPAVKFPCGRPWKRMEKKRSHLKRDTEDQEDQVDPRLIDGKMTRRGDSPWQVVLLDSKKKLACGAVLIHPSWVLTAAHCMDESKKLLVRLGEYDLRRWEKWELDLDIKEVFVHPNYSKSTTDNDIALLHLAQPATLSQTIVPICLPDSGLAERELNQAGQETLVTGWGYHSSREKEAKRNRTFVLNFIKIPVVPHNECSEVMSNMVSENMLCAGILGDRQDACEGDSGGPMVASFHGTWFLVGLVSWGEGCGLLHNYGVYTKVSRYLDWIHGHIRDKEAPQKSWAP
Chain of α1-Antitrypsin WT (P01009 25-418): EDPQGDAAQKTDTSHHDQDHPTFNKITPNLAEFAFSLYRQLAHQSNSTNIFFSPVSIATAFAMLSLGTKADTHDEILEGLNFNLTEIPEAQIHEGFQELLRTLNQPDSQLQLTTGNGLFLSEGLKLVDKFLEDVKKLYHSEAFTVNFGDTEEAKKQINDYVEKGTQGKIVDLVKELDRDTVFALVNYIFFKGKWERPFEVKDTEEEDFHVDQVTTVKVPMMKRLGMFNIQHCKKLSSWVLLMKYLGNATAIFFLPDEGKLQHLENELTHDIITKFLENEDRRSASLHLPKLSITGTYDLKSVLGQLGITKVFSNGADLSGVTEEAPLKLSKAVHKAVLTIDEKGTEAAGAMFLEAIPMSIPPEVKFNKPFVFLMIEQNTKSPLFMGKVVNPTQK
Chain of Plasma kallikrein (P03952 20-638 limits assumed): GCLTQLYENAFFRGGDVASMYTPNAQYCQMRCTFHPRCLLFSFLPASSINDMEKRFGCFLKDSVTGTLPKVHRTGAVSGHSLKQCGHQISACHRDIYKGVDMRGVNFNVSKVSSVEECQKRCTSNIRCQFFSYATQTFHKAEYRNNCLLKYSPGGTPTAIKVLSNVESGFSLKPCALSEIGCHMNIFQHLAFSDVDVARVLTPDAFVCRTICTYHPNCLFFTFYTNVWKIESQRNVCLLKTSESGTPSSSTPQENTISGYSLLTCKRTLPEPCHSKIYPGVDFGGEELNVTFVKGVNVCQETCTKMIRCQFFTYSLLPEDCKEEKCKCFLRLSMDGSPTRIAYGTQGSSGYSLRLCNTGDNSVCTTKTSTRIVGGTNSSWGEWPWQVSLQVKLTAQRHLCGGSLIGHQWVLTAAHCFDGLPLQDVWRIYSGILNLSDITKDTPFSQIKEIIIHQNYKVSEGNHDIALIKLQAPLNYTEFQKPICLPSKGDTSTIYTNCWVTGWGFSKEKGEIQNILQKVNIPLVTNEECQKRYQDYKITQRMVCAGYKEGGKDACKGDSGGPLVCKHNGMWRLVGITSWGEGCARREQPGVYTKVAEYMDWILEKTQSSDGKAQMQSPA

percentage inhibition, average (L2120 conversion) (Plasma kallikrein) [%]	percentage inhibition, average (S2366 conversion) (Activated protein C) [%]	percentage inhibition, average (I1140 conversion) (Thrombin) [%]	percentage inhibition, average (I1390 conversion) (Plasmin) [%]	percentage inhibition, average (L2120 conversion) (Human βFXIIa (Human)) [%]	percentage inhibition, average (L2120 conversion) (Human αFXIIa (Human)) [%]	Substance
91.3	2.3	3.7	66.7	40.3	–	α1-Antitrypsin variant SLLRox*-I (from UniProt P01009 25-418)
94	5	7	3	3	5	α1-Antitrypsin variant SFNRox* (from UniProt P01009 25-418)
92	3	0	13	6	–	α1-Antitrypsin variant SEARox* (from UniProt P01009 25-418)
98	66.5	97.5	99	49	62.5	α1-Antitrypsin variant 357AR358 (from UniProt P01009 25-418)
97	1	0	19	2	1	α1-Antitrypsin variant SPRRox* (from UniProt P01009 25-418)
91.5	94	100	100	90	94	α1-Antitrypsin variant M358R (from UniProt P01009 25-418)
39	3	3	20	9	–	α1-Antitrypsin variant SMTRox*-GVGG (from UniProt P01009 25-418)
98.7	76.5	10.3	94.5	89.2	92.5	α1-Antitrypsin variant SMTRox* (from UniProt P01009 25-418)
50	1	0	7	7	–	α1-Antitrypsin variant SDYKox* (from UniProt P01009 25-418)
88	6.5	14.5	5	4	4.5	α1-Antitrypsin variant SGQRox* (from UniProt P01009 25-418)
55	8	6	95	2	4	α1-Antitrypsin variant SVVKox* (from UniProt P01009 25-418)
94	10	3	0	15	17	α1-Antitrypsin variant SATRox* (from UniProt P01009 25-418)
97	7	62	0	20	–	α1-Antitrypsin variant SYARox* (from UniProt P01009 25-418)
91	4	1	97	0	2	α1-Antitrypsin variant SVRKox* (from UniProt P01009 25-418)
47	0	1	8	29	–	α1-Antitrypsin variant SMTRox*-VVGG (from UniProt P01009 25-418)
98.5	75	10.5	94	85	88.5	α1-Antitrypsin variant SMTR (from UniProt P01009 25-418)
71.6	1	0	1	5.2	–	α1-Antitrypsin variant SGNRox* (from UniProt P01009 25-418)
97.5	3	4.5	68	47	–	α1-Antitrypsin variant SLLRox*-V (from UniProt P01009 25-418)
95.5	1	9.5	5.3	17.3	–	α1-Antitrypsin variant SLGRox* (from UniProt P01009 25-418)
97	0	7	37	22	–	α1-Antitrypsin variant SKGRox* (from UniProt P01009 25-418)
97	7	62	0	20	–	α1-Antitrypsin variant SNSRox* (from UniProt P01009 25-418)
0	0	0	0	0	0	α1-Antitrypsin WT (from UniProt P01009 25-418)
94	0	0	47	5	–	α1-Antitrypsin variant SWKKox* (from UniProt P01009 25-418)
96.3	34	10	73	18.3	–	α1-Antitrypsin variant SMHRox* (from UniProt P01009 25-418)
99	49	7	97	39	47	α1-Antitrypsin variant SVTRox* (from UniProt P01009 25-418)
87	0	0	20	4	–	α1-Antitrypsin variant SMDRox* (from UniProt P01009 25-418)
97.7	9.7	62.3	94.7	41	–	α1-Antitrypsin variant SLLRox* (from UniProt P01009 25-418)
